The numbers were not newly measured in PMC4414177, “A novel orally active water-soluble inhibitor of human glutathione transferase exerts a potent and selective antitumor activity against human melanoma xenografts” (Oncotarget, 2015), which cites them from elsewhere.

The pKd is the Kd on a negative log10 scale, so that one unit is a factor of ten.

For the data set, the target named is GSTP1-1 (Homo sapiens) (UniProt P09211). The experiment in a line: ELISA. For orientation: In an ELISA, binding on a coated surface is turned into a signal by an enzyme label.
Chain of GSTP1-1 (Homo sapiens) (P09211 2-210): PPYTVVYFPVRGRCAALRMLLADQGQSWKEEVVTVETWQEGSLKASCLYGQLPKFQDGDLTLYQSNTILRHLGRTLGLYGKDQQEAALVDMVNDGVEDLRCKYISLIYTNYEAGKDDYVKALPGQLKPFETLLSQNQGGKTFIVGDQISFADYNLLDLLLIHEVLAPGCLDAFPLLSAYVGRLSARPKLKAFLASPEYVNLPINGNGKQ

pKd: −log10 of the molar value.

Chain of JNK1α2 (P45983 whole entry): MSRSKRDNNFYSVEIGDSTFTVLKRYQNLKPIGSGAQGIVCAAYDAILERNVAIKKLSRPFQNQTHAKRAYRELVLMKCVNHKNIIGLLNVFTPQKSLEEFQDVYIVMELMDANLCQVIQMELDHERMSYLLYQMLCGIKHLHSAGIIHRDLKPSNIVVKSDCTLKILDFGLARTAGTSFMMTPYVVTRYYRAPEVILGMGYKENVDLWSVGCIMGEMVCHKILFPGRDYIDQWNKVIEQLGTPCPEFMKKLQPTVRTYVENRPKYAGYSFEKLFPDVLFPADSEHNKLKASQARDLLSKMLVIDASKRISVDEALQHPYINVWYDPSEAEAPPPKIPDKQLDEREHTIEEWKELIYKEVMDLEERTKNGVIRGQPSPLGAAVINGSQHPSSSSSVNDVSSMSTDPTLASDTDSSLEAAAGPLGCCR
Chain of TRAF2 CTD (Q12933 310-501): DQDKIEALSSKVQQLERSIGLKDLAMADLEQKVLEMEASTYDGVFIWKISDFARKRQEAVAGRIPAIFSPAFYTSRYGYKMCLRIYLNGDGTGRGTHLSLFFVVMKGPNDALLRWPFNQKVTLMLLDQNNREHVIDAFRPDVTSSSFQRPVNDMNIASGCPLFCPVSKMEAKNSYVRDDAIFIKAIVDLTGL

Regarding JNK1α2 (from UniProt P45983), the pKd is less than 5.00.
For TRAF2 CTD (from UniProt Q12933), the pKd was less than 5.30.
